Results from PMC4033627.

Legend:
[1] = biological target: catalytic domain of Sst2 (residues 245–435), Sst2^cat (S. pombe) (UniProt Q9P371); experiment: ITC
[2] = biological target: Sst2^catD354A (Asp354Ala mutant of the catalytic domain of Sst2) (S. pombe) (UniProt Q9P371); experiment: ITC
Sequence of Sst2^catD354A (Asp354Ala mutant of the catalytic domain of Sst2) (S. pombe) (Q9P371 245-435 D354A): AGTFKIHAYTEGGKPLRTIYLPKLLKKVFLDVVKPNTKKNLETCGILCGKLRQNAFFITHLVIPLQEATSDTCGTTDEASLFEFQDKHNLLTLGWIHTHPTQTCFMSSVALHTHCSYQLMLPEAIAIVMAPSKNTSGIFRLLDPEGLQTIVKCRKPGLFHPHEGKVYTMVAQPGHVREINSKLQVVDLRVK

Sequence of catalytic domain of Sst2 (residues 245–435), Sst2^cat (S. pombe) (Q9P371 245-435): as the sequence (Q9P371 245-435 D354A) above, with A110D counted along it

| dH [1] | Kd [2] | dH [2] | Substance |
| --- | --- | --- | --- |
| 11.9 kcal/mol | – | – | ubiquitin (from a pRSETA plasmid, for isothermal titration calorimetry) (from UniProt P0CG48 1-76) (natural protein) |
| – | 1100 nM | 11.8 kcal/mol | Lys63-linked diubiquitin, enzymatically synthesized from Lys63Arg and Asp77 ubiquitin mutants |
